Assay results reported in patent US20210214454A1 (SYMPHOGEN A S, published 2021).
Changes are numbered by the printed parent chain. One block for each binder: values may come before it.

Experiments:
[1] = target: T1, His-tagged human CD40 extracellular domain (ECD) (human, UniProt P25942 21-193); assay: SPR (IBIS MX96), antibody captured, monovalent CD40 ECD in solution
T1 construct: Bought from Sino Biological; also called human CD40 ECD; CD40-his ECD antigen; not shown: His tag

[2] = target: T2, cynomolgus CD40 extracellular domain (ECD) (cynomolgus); assay: as above
T2 construct: extracellular domain; also called Cynomolgus CD40 ECD

[3] = target: T3, cynomolgus CD40 protein expressed on CHO-S cells (cynomolgus, UniProt G7PG38 21-278); assay: flow cytometry on CHO-S cells transiently expressing cynomolgus CD40; AF647 anti-human IgG (H+L) secondary; GeoMean RL1-H
T3 construct: whole, on cells
Procedure: (§1) The anti-CD40 antibodies were incubated with hamster CHO-S cells transiently expressing human or cynomolgus CD40 for 30 minutes at 4° C. The cells were washed twice and subsequently incubated for an additional 20 minutes with AF647-conjugated secondary anti-human IgG (H+L) antibody. After the washing step, antibody binding was detected using the high-throughput flow cytometer iQue Screener PLUS (Sartorius) measuring the GeoMean of AF647 signal in each well. Every concentration was assayed in triplicate and a 12-point titration curve was generated for each antibody.

[4] = target: T4, human CD40 protein expressed on cells (human, UniProt P25942 21-277); assay: flow cytometry on CHO-S cells transiently expressing human CD40; AF647 anti-human IgG (H+L) secondary; GeoMean RL1-H
T4 construct: also called human CD40 on CHO-S cells; CD40 of CD40-NFkB-luciferase reporter cells (Promega CD40 Bioassay kit)
T4 sequence (P25942 21-277 limits assumed): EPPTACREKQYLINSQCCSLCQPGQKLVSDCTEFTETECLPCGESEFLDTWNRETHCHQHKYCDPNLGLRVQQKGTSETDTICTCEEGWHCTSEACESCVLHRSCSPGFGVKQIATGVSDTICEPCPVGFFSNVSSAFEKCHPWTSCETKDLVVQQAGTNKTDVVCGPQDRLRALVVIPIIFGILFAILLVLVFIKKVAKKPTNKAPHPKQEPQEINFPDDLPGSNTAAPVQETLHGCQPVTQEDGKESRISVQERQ
Procedure: as §1

T1 sequence (P25942 21-193): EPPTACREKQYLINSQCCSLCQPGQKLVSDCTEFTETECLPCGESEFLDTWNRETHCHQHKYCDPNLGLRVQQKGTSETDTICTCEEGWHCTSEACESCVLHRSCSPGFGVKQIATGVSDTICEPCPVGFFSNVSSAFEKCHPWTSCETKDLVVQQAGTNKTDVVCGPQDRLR

Kd [1]: 3.1 nM
koff [1]: 0.00031 s⁻¹
kon [1]: 99000 M⁻¹ s⁻¹
Kd [2]: 57 nM
koff [2]: 0.0021 s⁻¹
kon [2]: 37000 M⁻¹ s⁻¹
EC50 (read off the curve) [3]: ~0.4 mg/L
B1: antibody 15948 (antibody, human IgG1, kappa, L234A L235A, V domains shown)
VH: QVQLVESGGGVVQPGRSLRLSCAASGFTFSIYGMHWVRQAPGKGLEWVAVISYDGSNKYYADSVKGRFTISRDNSKNTLYLQMNSLRAEDTAVYYCAKDPDYYGSGSYYPDWGQGTLVTVSS
VL: DIQLTQSPSFLSASVGDRVTITCRASQGISSYLAWYQQKPGKAPKLLIYAASTLQSGVPSRFSGSGSGTEFTLTISSLQPEDFATYYCQQVKSYPLTFGGGTKVEIKR
notes: Fully human IgG1-LALA / kappa

Kd [1]: 0.75 nM
koff [1]: 0.00014 s⁻¹
kon [1]: 190000 M⁻¹ s⁻¹
Kd [2]: 0.44 nM
koff [2]: 0.00014 s⁻¹
kon [2]: 330000 M⁻¹ s⁻¹
EC50 (read off the curve) [3]: ~0.02 mg/L
B4: antibody 15888 (antibody, human IgG1, kappa, L234A L235A, V domains shown)
VH: QVQLQQSGPGLVKPSQTLSLTCAISGDSVSSNSATWNWIRQSPSRGLEWLGRTYYRSKWYNDYAVSVKSRITINPDTSKNQFSLQLNSVTPEDTAVYYCARGGHSIAVAGPFDYWGQGTLVTVSS
VL: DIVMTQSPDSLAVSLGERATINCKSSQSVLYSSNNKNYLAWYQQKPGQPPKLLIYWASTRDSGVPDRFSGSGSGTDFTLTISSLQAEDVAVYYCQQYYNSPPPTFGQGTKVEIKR
notes: Fully human IgG1-LALA / kappa

EC50 (read off the curve) [4]: ~0.1 mg/L
Kd [1]: 2.8 nM
koff [1]: 0.00012 s⁻¹
kon [1]: 41000 M⁻¹ s⁻¹
Kd [2]: 1.5 nM
koff [2]: 0.00012 s⁻¹
kon [2]: 80000 M⁻¹ s⁻¹
EC50 (read off the curve) [3]: ~0.2 mg/L
B6: antibody 15833 (antibody, human IgG1, kappa, L234A L235A, V domains shown)
VH: QVQLVESGGGVVQPGRSLRLSCAASGFTFSNYAMHWVRQAPGKGLEWVALISFDGSYKYYADSVKGRFTISRDNSKNTLYLQMNSLRAEDTAVYYCVKDAGYSSSWFFDYWGQGTLVTVSS
VL: DIQMTQSPSSVSASVGDRVTITCRASQDISSWLAWYQQKPGKAPKLLIYAASSLQSGVPSRFSGSGSGTDFTLTISSLQPEDFGNYYCQQANSFPWTFGQGTKVEIKR
notes: Fully human IgG1-LALA / kappa

More lines, now with the values behind:

B2: antibody 16040 (antibody, human IgG1, kappa, L234A L235A, V domains shown)
VH: QVQLVESGGGVVQPGRSLRLSCAASGFTFSIYGMHWVRQAPGKGLEWVAVISYDGSNKYYADSVKGRFTISRDNSKNTLYLQMNSLRAEDTAVYYCAAGNWFDPWGQGTLVTVSS
VL: B1 VL with V91L, K92N, S93R
notes: Fully human IgG1-LALA / kappa
Kd [1]: 7 nM
koff [1]: 0.00036 s⁻¹
kon [1]: 52000 M⁻¹ s⁻¹
Kd [2]: 16 nM
koff [2]: 0.0013 s⁻¹
kon [2]: 81000 M⁻¹ s⁻¹

B3: antibody 17303 (antibody, human IgG1, kappa, L234A L235A, V domains shown)
VH: EVQLVESGGGLVQPGRSLRLSCAASGFTFDDHAMHWVRQAPGKGLEWVSGISWNSGSIGYAESVKGRFTISRDNAKNSLYLQMNSLRAEDTALYYCAKDRRGPFDYWGQGTLVTVSS
VL: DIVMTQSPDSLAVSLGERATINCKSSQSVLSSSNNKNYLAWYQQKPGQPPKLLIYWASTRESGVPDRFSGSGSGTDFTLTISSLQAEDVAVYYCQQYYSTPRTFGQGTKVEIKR
notes: Fully human IgG1-LALA / kappa
Kd [1]: 7.8 nM
koff [1]: 0.00038 s⁻¹
kon [1]: 49000 M⁻¹ s⁻¹
Kd [2]: 9.8 nM
koff [2]: 0.0014 s⁻¹
kon [2]: 150000 M⁻¹ s⁻¹
EC50 (read off the curve) [3]: ~0.02 mg/L

B5: antibody 16154 (antibody, human IgG1, kappa, L234A L235A, V domains shown)
VH: EVQLVESGGGLVQPGGSLRLSCAASGFTFTSYWMSWVRQAPGKGLEWVANIKQDGSEKYYVDSVKGRFTISRDNAKNSLYLQMNSLRAEDTAVYYCARGPVAGPYWYFDLWGRGTLVTVSS
VL: AIQMTQSPSSLSASVGDRVTITCRASQGIRNDLGWYQQKPGKAPKLLIYAASSLQSGVPSRFSGSGSGTDFTLTISSLQPEDFATYYCLQDYHYPLTFGGGTKVEIKR
notes: Fully human IgG1-LALA / kappa
EC50 (read off the curve) [4]: ~0.008 mg/L
Kd [1]: 5.7 nM
koff [1]: 0.00031 s⁻¹
kon [1]: 53000 M⁻¹ s⁻¹
Kd [2]: 4.6 nM
koff [2]: 0.00051 s⁻¹
kon [2]: 110000 M⁻¹ s⁻¹
EC50 (read off the curve) [3]: ~0.008 mg/L
